Measured values reported in patent CN111944047A (CHONGQING PREC BIOTECH CO LTD, dated 2020).
Values belong to the binder of their own block, whether it stands above or below them.

Molecular target: T1, hBCMA-hFc (human, UniProt Q02223 1-54, limits assumed)
T1 construct: not shown: human Fc (hFc)
T1 sequence (looked up): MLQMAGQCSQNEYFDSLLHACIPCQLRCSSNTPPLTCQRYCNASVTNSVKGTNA
Assay: Fortebio Octet K2 / Nicoya OpenSPR, hBCMA-hFc loaded on sensor, scFv in solution

Kd: 4.65 nM
koff: 0.000438 s⁻¹
kon: 94200 M⁻¹ s⁻¹
B1: ScFv1 (scFv)
scFv: DIVMTQSPDSLAVSLGERATINCRASESVSIHGTHLMHWYQQLPGTPPKLLIYAASNLESGVPDRFSGSGSGTDFTLKISPVEAEDVGVYYCQQSIEDPRTFGGGTKLEIKGSTSGSGKPGSGEGSTKGQVQLVQSGPALVKPGASVKVSCKASGYTFTDYYMNWVRQAHGQGLEWMGVINPYNGGTDYNQKFKGRVTMTRDTSISTAYMELSSLRSEDTAVYYCARSVYDYPFDYWGQGTLVTVSS
notes: The scFv is VL-Linker-VH, expressed in CHO cells and purified; Any tag on the purified protein is not described for ScFv1; also called 靶向BCMA人源化单克隆抗体; 抗BCMA的人源化单链抗体

Kd: 16.4 nM
koff: 0.00437 s⁻¹
kon: 266000 M⁻¹ s⁻¹
B2: ScFv2 (scFv)
scFv: DIVLTQSPASLAVSLGQRATITCRASESVSIHGTHLMHWYQQKPGQPPVLVIYAASNLESGVPARFSGSGSGTDFTLKIHPVEAEDVGVYYCQQSIEDPRTFGGGTKLEIKGSTSGSGKPGSGEGSTKGQVQLVQSGPEVKKPGASVKVSCKASGYTFTDYYMNWVRQMHGKGLEWMGVINPYNGGTDYNQKFKGRVTITADKSTSTAYMELSSLRSEDTAVYYCARSVYDYPFDYWGQGTLVTVSS
notes: also called 人源化ScFv2; 靶向BCMA人源化单克隆抗体
